This is an account of results in paper PMC3659105, “Profiling Epidermal Growth Factor Receptor and Heregulin Receptor 3 Heteromerization Using Receptor Tyrosine Kinase Heteromer Investigation Technology” (PLoS ONE, 2013).

In test [1] the target is T1, HER3 (Homo sapiens, UniProt P21860).
T1 construct: used to replace the C terminus of the full-length constructs (with or without Rluc8); host or cells: HEK293FT
Description: Ligand-induced BRET between HER3/Rluc8 and Grb2/Venus (+ pcDNA3). Format: cell-based. Here is the method: (§1) HEK293FT cells (Life Technologies) were maintained at 37°C in 5% CO2 and complete media (Dulbecco's modified Eagle's medium (DMEM) containing 0.3 mg/ml glutamine, 100 IU/ml penicillin and 100 µg/ml streptomycin (GIBCO BRL, Carlsbad, CA, USA)) supplemented with 10% foetal calf serum (FCS) and 400 µg/ml Geneticin (Gibco). Transient transfections were carried out 24 h after seeding about 550,000 cells/well of a 6-well plate. Genejuice (Merck, Kilsyth, Australia) transfection reagent was used according to the manufacturer's instructions. Cells were harvested with 0.05% Trypsin-EDTA (Gibco).
HEK293FT cells were transiently transfected with cDNA encoding a RTK fused to Rluc8 (RTK/Rluc8) and Grb2 fused to Venus (Grb2/Venus), along with a second RTK that was untagged with respect to BRET signaling, or empty vector (pcDNA3). […] BRET measurements were taken at 37°C using the VICTOR Light plate reader with Wallac 1420 software (PerkinElmer, Glen Waverley, Victoria, Australia). Filtered light emissions were sequentially measured at 400–475 and 520–540 nm. The BRET signal was calculated by subtracting the ratio of 520–540 nm emission over 400–475 nm emission for a vehicle-treated cell sample from the same ratio for a second aliquot of the same cells treated with agonist, as described previously, [35]. […]
Data were analyzed using Prism 5 graphing software (GraphPad, La Jolla, CA, USA). […]
Background: In BRET a luciferase serves as donor, and the signal depends on an acceptor being close.

Test [2] concerns the target T2, EGFR-HER3 heteromer (Homo sapiens, UniProt P00533+P21860).
T2 construct: used to replace the C terminus of the full-length constructs (with or without Rluc8); host or cells: HEK293FT
Briefly: RTK-HIT BRET between HER3/Rluc8 and Grb2/Venus with untagged EGFR co-expressed. Format: cell-based. Particulars: HEK293FT cells, about 25 minutes of agonist stimulation. Here is the method:
as §1
Following initial titration of cDNA amounts (data not shown), two ratios were selected for the heteromer combinations shown in Figure 2. […] BRET measurements were taken at 37°C using the VICTOR Light plate reader with Wallac 1420 software (PerkinElmer, Glen Waverley, Victoria, Australia). Filtered light emissions were sequentially measured at 400–475 and 520–540 nm. The BRET signal was calculated by subtracting the ratio of 520–540 nm emission over 400–475 nm emission for a vehicle-treated cell sample from the same ratio for a second aliquot of the same cells treated with agonist, as described previously, [35].

T1 sequence (P21860 20-1342): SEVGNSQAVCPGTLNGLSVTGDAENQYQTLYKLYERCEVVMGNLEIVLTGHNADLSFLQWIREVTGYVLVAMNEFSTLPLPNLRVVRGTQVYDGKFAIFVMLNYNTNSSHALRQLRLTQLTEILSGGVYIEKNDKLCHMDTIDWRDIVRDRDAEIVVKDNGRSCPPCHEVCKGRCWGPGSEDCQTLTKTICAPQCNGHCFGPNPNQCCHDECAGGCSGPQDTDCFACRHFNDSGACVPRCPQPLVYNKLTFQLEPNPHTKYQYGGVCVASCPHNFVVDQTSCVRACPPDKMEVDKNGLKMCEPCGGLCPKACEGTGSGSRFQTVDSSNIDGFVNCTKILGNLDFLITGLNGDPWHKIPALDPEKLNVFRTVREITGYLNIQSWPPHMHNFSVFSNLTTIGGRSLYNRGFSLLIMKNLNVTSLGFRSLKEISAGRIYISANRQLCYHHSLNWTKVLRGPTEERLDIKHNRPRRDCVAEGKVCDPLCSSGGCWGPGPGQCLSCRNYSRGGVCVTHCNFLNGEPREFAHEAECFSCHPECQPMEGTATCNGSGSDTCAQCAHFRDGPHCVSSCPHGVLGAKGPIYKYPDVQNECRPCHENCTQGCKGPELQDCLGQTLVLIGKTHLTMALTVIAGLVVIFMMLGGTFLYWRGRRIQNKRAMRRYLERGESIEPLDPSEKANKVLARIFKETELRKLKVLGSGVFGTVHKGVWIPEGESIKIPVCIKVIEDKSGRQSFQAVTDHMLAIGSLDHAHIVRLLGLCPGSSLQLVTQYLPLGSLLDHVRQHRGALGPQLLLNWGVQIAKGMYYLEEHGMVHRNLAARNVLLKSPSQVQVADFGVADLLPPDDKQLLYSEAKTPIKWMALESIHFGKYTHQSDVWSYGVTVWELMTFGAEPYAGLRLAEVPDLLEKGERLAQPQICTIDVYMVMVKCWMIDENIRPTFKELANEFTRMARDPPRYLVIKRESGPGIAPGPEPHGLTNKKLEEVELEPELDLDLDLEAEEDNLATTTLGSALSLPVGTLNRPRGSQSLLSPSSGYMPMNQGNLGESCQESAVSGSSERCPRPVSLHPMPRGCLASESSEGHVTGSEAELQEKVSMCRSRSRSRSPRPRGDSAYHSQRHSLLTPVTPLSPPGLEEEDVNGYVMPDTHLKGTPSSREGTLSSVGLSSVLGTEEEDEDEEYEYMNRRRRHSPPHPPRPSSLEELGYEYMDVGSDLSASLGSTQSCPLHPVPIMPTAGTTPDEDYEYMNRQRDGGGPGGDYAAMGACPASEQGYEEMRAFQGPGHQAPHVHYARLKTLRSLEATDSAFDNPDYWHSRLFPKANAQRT

In the case of “EGF: epidermal growth factor, ligand selective for EGFR”, in test [1] (HER3/Rluc8 + Grb2/Venus without EGFR, 1 µM agonist, kinetic), the “agonist-induced BRET signal” value is on record as “no or little BRET signal”.

As for HRG: Heregulin-β1, ligand of HER3, in test [2], the pEC50 – broadly, −log10 of the EC50, conventionally taken in molar units – is recorded as 7.46±0.14 (n = 5).

As for `COc1cc2ncnc(Nc3cccc(Cl)c3)c2cc1OC.Cl` [AG-1478, AG-1478 hydrochloride, reference compound], the “effect on BRET” value in test [1] (increasing concentrations of AG-1478, pre-treated or not with 20 nM EGF or HRG) is “no effect”.
